Here are results for 1 molecule from article PMC12661054, “The CIP2A-TOPBP1 axis facilitates mitotic DNA repair via MiDAS and MMEJ” (Nature Communications, 2025).

The experiment addresses T1, GST-TOPBP1(BRCT0-2 1-290) K250E (human, UniProt Q92547 1-290, K250E).
T1 construct: TOPBP1, human, residues 1-290 (BRCT0-2); purified as the wild type; no cleavage of GST described; also called BRCT 2 (K250E); source: E. coli BL21(DE3), purified (HiTrap GST, Superdex 200)
In words: fluorescence polarisation; 100 nM fluorescein-labelled SLX4 peptide, increasing concentrations of TOPBP1 BRCT fragment; room temperature; 25 mM HEPES pH 7.5, 150 mM NaCl, 1 mM EDTA, 0.25 mM TCEP, 0.002% Tween 20; single site with non-specific component. To be noted: both partners purified. For orientation: Polarisation of emitted light reports the rotation of a fluorescent probe.

Square brackets hold non-standard residues; d marks the D form. Ends that are not written are not given here. fluorescein = fluorescein label on the N-terminus; pT = C[C@@H](OP(=O)(O)O)[C@H](N)C(=O)O

B1: Flu-SLX4_pT1260 (peptide)
peptide: fluorescein-GYGTSWLVPA[pT]PLASRSR
modifications: also: phosphothreonine at Thr1260 (position 4 or 11)
notes: residues before the SLX4 stretch, not SLX4; SLX4, human, amino acids 1253-1267, pT1260; also called fluorescein tagged SLX4 pT1260-containing peptide; pThr1260 SLX4 peptide; source: synthetic peptide
With B1, the binding result is given as “binds”.
